Series [1] concerns Nc1ccn([C@@H]2O[C@H](COP(=O)(O)OP(=O)(O)OP(=O)(O)O)[C@@H](O)[C@H]2O)c(=O)n1. The series is described as follows: purified protein. The conditions noted are these: Mg2+ CTP binds prior to Neu5Ac.
Series [2] has as its system CC(=O)N[C@H]1[C@H]([C@H](O)[C@H](O)CO)OC(O)(C(=O)O)C[C@@H]1O. Put plainly: purified protein. The settings on record: Mg2+ active site; binds after CTP.

The source of these data is article PMC12654856, “Exploring the Scope of Functionalized N-Acylneuraminic Acid β-Methyl Glycosides as Inhibitors of Neisseria meningitidis CMP-Sialic Acid Synthetase” (Molecules, 2025).

As usually defined, the Km is the substrate concentration at which the rate is half of its maximum. “NmB CMP-sialic acid synthetase (CSS) (Neisseria meningitidis MC58)”: the results for the Michaelis-Menten constant (Km) in series [1] and in series [2] were 22 µM and 37 µM, respectively.
